From patent US20070009988A1

Key:
gliadin 33mer … (wheat) = experiment: cell-based or functional assay
[1] = biological target: T1, gliadin 33mer LQLQPFPQPQLPYPQPQLPYPQPQLPYPQPQPF
T1 chain: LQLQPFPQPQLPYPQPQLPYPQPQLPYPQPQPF

[2] = biological target: T2, gliadin 14mer PQPQLPYPQPQLPY
T2 chain: PQPQLPYPQPQLPY

Pronase
digestion of the peptide over 20 h, E/S=1/25 (gliadin 33mer … (wheat)): < 40%

B1: microsomal leucine aminopeptidase from porcine kidney (Sigma) (protein)
chain: YAQEKNKNAEHVPQAPTSPTITTTAAITLDQSKPWNRYRLPTTLLPDSYNVTLRPYLTPNADGLYIFKGKSIVRLLCQEPTDVIIIHSKKLNYTTQGHMVVLRGVGDSQVPEIDRTELVELTEYLVVHLKGSLQPGHMYEMESEFQGELADDLAGFYRSEYMEGNVKKVLATTQMQSTDARKSFPCFDEPAMKATFNITLIHPNNLTALSNMPPKGSSTPLAEDPNWSVTEFETTPVMSTYLLAYIVSEFQSVNETAQNGVLIRIWARPNAIAEGHGMYALNVTGPILNFFANHYNTSYPLPKSDQIALPDFNAGAMENWGLVTYRENALLFDPQSSSISNKERVVTVIAHELAHQWFGNLVTLAWWNDLWLNEGFASYVEYLGADHAEPTWNLKDLIVPGDVYRVMAVDALASSHPLTTPAEEVNTPAQISEMFDSISYSKGASVIRMLSNFLTEDLFKEGLASYLHAFAYQNTTYLDLWEHLQKAVDAQTSIRLPDTVRAIMDRWTLQMGFPVITVDTKTGNISQKHFLLDSESNVTRSSAFDYLWIVPISSIKNGVMQDHYWLRDVSQAQNDLFKTASDDWVLLNVNVTGYFQVNYDEDNWRMIQHQLQTNLSVIPVINRAQVIYDSFNLATAHMVPVTLALDNTLFLNGEKEYMPWQAALSSLSYFSLMFDRSEVYGPMKKYLRKQVEPLFQHFETLTKNWTERPENLMDQYSEINAISTACSNGLPQCENLAKTLFDQWMSDPENNPIHPNLRSTIYCNAIAQGGQDQWDFAWGQLQQAQLVNEADKLRSALACSNEVWLLNRYLGYTLNPDLIRKQDATSTINSIASNVIGQPLAWDFVQSNWKKLFQDYGGGSFSFSNLIQGVTRRFSSEFELQQLEQFKKNNMDVGFGSGTRALEQALEKTKANIKWVKENKEVVLNWFIEHS
digestion of the peptide, RP-HPLC and ESI-MS [1]: incubation with microsomal porcine kidney aminopeptidase results only in a partial deletion of N-terminal Leu and C-terminal Phe (due to a carboxypeptidasic contaminant)

B2: recombinant ruLAP2 (aminopeptidase II of Trichophyton rubrum) produced in P. pastoris (protein)
chain: RLVGQEPFGWPFKPMVTQDDLQNKIKLKDIMAGVEKLQSFSDAHPEKNRVFGGNGHKDTVEWIYNEIKATGYYDVKKQEQVHLWSHAEAALNANGKDLKASAMSYSPPASKIMAELVVAKNNGCNATDYPANTQGKIVLVERGVCSFGEKSAQAGDAKAAGAIVYNNVPGSLAGTLGGLDKRHVPTAGLSQEDGKNLATLVASGKIDVTMNVISLFENRTTWNVIAETKGGDHNNVIMLGAHSDSVDAGPGINDNGSGSIGIMTVAKALTNFKLNNAVRFAWWTAEEFGLLGSTFYVNSLDDRELHKVKLYLNFDMIGSPNFANQIYDGDGSAYNMTGPAGSAEIEYLFEKFFDDQGIPHQPTAFTGRSDYSAFIKRNVPAGGLFTGAEVVKTPEQVKLFGGEAGVAYDKNYHRKGDTVANINKGAIFLNTRAIAYAIAEYARSLKGFPTRPKTGKRDVNPQYSKMPGGGCGHHTVFM
digestion of the peptide, 37 C, 4 h, RP-HPLC and ESI-MS [2]: the 14mer is not digested with ruLAP2 within 4 h. There is no change in the HPLC profile when compared with the control. In fact, digestion results only in the cleavage of the N-terminal Proline.
mass loss after overnight digestion (ESI-MS) (Ala-proNPY): the N-terminal alanine was almost totally removed (molecular mass loss of 71 amu) from proNPY
mass loss after overnight digestion (ESI-MS), E/S 1:20 and 1:100 (Gly-Ser-proNPY): incubation with ruLAP2 results in the cleavage of the two N-terminal residues Gly-Ser with a theoretical loss of 144.1 amu (found 144.2)

B3: cytosolic leucine aminopeptidase from porcine kidney (Sigma) (protein)
chain: TKGLVLGIYSKEKEDDAPQFTSAGENFDKLVSGKLREILNISGPPLKAGKTRTFYGLHEDFSSVVVVGLGKKGAGVDDQENWHEGKENIRAAVAAGCRQIQDLEIPSVEVDPCGDAQAAAEGAVLGLYEYDELKQKKKVVVSAKLHGSGDQEAWQRGVLFASGQNLARHLMETPANEMTPTRFAEVIEKNLKSASSKTDVHIRPKSWIEEQEMGSFLSVAKGSEEPPVFLEIHYKGSPDASDPPLVFVGKGITFDSGGISIKASANMDLMRADMGGAATICSTIVSAAKLDLPINLVGLAPLCENMPSGKANKPGDVVRAKNGKTIQVDNTDAEGRLILADALCYAHTFNPKVIINAATLTGAMDIALGSGATGVFTNSSWLWNKLFEASIETGDRVWRMPLFEHYTKQIVDCQLADVNNIGKYRSAGACTAAAFLKEFVTHPKWAHLDIAGVMTNKDEVPYLRKGMAGRPTRTLIEFLLRFSQDSA
digestion of the peptide, RP-HPLC [1]: Cytosolic porcine kidney aminopeptidase is totally inactive towards the 33mer
